Results from patent publication US20250388682A1 (EPIBIOLOGICS, published 2025).

B1: EPI873 (hu15G11v5/Mav2) (bispecific antibody, human IgG1, kappa)
heavy: not shown
light: DIQMTQSPSSLSASVGDRVTITCRASDNLYSNLAWYQQKPGKSPKLLVYDATNLADGVPSRFSGSGSGTDYTLTISSLQPEDFATYYCQHFWGTPLTFGQGTKVEIKRTVAAPSVFIFPPSDEQLKSGTASVVCLLNNFYPREAKVQWKVDNALQSGNSQESVTEQDSKDSTYSLSSTLTLSKADYEKHKVYACEVTHQGLSSPVTKSFNRGEC
chain: not shown
B2: EPI1556-1 (hu15G11v5/EgB4) (bispecific antibody, human IgG1, kappa)
heavy: not shown
light: B1 light
chain: not shown
B3: EPI1022-1 (Duligotuzumab/Mav2) (bispecific antibody, human IgG1, kappa)
heavy: not shown
light: DIQMTQSPSSLSASVGDRVTITCRASQNIATDVAWYQQKPGKAPKLLIYSASFLYSGVPSRFSGSGSGTDFTLTISSLQPEDFATYYCQQSEPEPYTFGQGTKVEIKRTVAAPSVFIFPPSDEQLKSGTASVVCLLNNFYPREAKVQWKVDNALQSGNSQESVTEQDSKDSTYSLSSTLTLSKADYEKHKVYACEVTHQGLSSPVTKSFNRGEC
chain: not shown
B4: EPI1527-1 (Duligotuzumab/EgB4) (bispecific antibody, human IgG1, kappa)
heavy: not shown
light: B3 light
chain: not shown

Each binder was assayed against Epidermal Growth Factor Receptor (EGFR) (human, UniProt P00533 25-1210) (assay: cell-based or functional assay).

EGFR cell surface removal (percent; flow cytometry with a labeled anti-EGFR antibody after 24 hours at 50 nM) [%]	Binder
76.4	B1
69.2	B2
75.1	B3
78.6	B4
